We go through one molecule from paper PMC4066776, “Molecular determinants of the DprA−RecA interaction for nucleation on ssDNA”.

The data set deals with T1, WT DprA (Streptococcus pneumoniae, UniProt Q8DPI7 1-282).
T1 sequence: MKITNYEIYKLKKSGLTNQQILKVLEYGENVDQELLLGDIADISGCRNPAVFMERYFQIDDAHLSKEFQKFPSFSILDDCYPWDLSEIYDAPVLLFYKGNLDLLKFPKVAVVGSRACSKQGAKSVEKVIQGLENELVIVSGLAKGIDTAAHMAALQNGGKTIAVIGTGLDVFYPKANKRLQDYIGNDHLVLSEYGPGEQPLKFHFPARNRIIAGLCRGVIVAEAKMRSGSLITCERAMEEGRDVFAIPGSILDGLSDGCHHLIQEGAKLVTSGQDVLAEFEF
Nature of the data set: fluorescence anisotropy; Pull-down: 200 mM NaCl, 20 mM Tris-HCl pH 7.5, 20 C, 30 min; anisotropy buffer not in the material. The following applies: protein: recombinant; chain copies: 2; label: fluorescein. (In general: In fluorescence polarisation assays a small probe gives low polarisation when free and higher when bound to something large.)

B1: dT20 (ssDNA)
DNA: TTTTTTTTTTTTTTTTTTTT
Take B1: the binding result is “binds”.
